# Source: US20130078188
# Assays:
# [1] = tested on: Cy7-NH-e9-c(S-Peg12)oPLGC(Me)AG-r9-c(Cy5)-CONH2 (20, RACPPPLGC(Me)AG)
# [2] = tested on: Cy7-NH-e9-c(S-Peg12) oPPRSFL-r9-c(Cy5)-CONH2 (10, RACPPPPRSFL)
# [3] = tested on: Cy7-NH-e9-c(S-Peg12) oDPRSFL-r9-c(Cy5)-CONH2 (5, RACPPDPRSFL)
# Cy7-NH-e9-c(S-Peg12) oDPRSFL-r9-c(Cy5)-CONH2 (5, RACPPDPRSFL), sequence (chain, as listed by the source): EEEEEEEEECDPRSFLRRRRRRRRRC
# RACPP1, sequence (chain, as listed by the source): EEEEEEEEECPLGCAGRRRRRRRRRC
# MMP-9, sequence (chain, as listed by the source): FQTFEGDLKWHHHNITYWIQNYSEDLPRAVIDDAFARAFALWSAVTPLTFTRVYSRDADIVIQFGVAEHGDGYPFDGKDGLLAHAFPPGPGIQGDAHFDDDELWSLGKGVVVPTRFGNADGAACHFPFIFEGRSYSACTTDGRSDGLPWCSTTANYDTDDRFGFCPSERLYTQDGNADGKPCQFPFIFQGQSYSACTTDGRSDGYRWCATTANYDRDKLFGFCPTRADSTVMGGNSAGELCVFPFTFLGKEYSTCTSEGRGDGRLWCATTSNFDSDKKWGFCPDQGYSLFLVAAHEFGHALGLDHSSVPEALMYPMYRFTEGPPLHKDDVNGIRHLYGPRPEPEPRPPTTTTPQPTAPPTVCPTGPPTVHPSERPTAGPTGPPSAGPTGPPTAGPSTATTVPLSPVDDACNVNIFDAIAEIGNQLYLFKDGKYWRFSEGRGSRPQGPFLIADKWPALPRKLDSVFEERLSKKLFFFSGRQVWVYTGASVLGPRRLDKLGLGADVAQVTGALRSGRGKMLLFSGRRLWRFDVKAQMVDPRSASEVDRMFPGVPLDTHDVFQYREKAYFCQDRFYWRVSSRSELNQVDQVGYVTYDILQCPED
# Cy7-NH-e9-c(S-Peg12) oPPRSFL-r9-c(Cy5)-CONH2 (10, RACPPPPRSFL), sequence (chain, as listed by the source): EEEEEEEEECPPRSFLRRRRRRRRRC
# RACPP2, sequence (chain, as listed by the source): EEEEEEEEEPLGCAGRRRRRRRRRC
Substance,"peptide cleavage, tricine SDS-PAGE with Cy5 and Cy7 imaging (RACPP2)","decrease in Cy7 re-emission on cleavage, in mouse plasma (RACPP1)",extent of cleavage (RACPP1),"increase in Cy5 emission on cleavage, in mouse plasma (RACPP1)",increase in the ratio of 670/780 nm emissions on cleavage (RACPP1),"fraction of peptide cleaved, HPLC (FRET-ACPP 2)","increase of the Cy5 peak, extrapolated to 100% cleavage (FRET-ACPP 2)","peptide cleavage, SDS-PAGE with Cy5/Cy7 ratio imaging [1]",kcat/Km (cleavage activity) [2],kcat/Km [3],"change in Cy5/Cy7 emission ratio on cleavage, in plasma [2]","decrease in Cy7 re-emission on cleavage, in plasma [2]","increase in Cy5 emission on cleavage, in plasma [2]",kcat/Km [2],"peptide cleavage, SDS-PAGE with Cy5/Cy7 ratio imaging [2]","peptide cleavage, SDS-PAGE with Cy5/Cy7 ratio imaging [3]"
MMP-9,"All three components (intact uncleaved peptide, r9 and e9 fragments) are well separated and can be seen as distinct bands in the gel",decreased Cy7 re-emission by ˜4 fold,after (red dashed curve)>95% complete cleavage with MMP-9,increased Cy5 emission by ˜10 fold,net 40-fold increase in the ratio of 670/780 nm emissions,87% of the peptide had been cleaved,the Cy5 peak increases about 7 fold,–,–,–,–,–,–,–,–,–
factor Xa,–,–,–,–,–,–,–,not cleaved by any of the pro-coagulation enzymes,no detectable activity towards RACPPPPRSFL,6200 M⁻¹ s⁻¹,–,–,–,–,–,–
thrombin,–,–,–,–,–,–,–,not cleaved by any of the pro-coagulation enzymes,–,kcat/km=1.2×10^4 M^-1s^-1,34 fold change in Cy5/Cy7 emission ratio,3.8 fold decrease in Cy7 re-emission,8.8 fold increase in Cy5 emission,7300 M⁻¹ s⁻¹,cleaved by thrombin in a time dependent manner and that RACPPPPRSFL(10) is selective for thrombin,cleaved by thrombin in a time dependent manner
